Laboratory results taken from PMC6888877, “Deconstructing and repurposing the light-regulated interplay between Arabidopsis phytochromes and interacting factors” (Communications Biology, 2019).

B5: P3.A-EYFP (domain or fragment)
chain: MVDEVVELVWENGQISTQSQSSRSRNIPPPQANSSRAREIGN

Assays:
[1] = molecular target: T1, Arabidopsis thaliana phytochrome B photosensory core module (AtPhyB PCM) (Arabidopsis thaliana, UniProt P14713 1-651, covalently incorporated bilin chromophore (PCB; co-expressed Synechocystis sp. heme oxygenase 1 and pcyA)); assay: fluorescence polarisation; anisotropy of EYFP; 20 nM AtPIF-EYFP constant, AtPhyB PCM 0-10 µM titrated, red light (640 nm), Pfr state; KD corrected for the Pfr fraction (about 0.56); 20 mM HEPES/HCl pH 7.3, 10 mM NaCl, 100 µg/mL BSA; single-site isotherm; conditions: both partners purified
T1 construct: A. thaliana phytochrome B, photosensory core module (PAS-GAF-PHY with N-terminal extension), residues 1-651; Pr state (far-red light or dark) and Pfr state (red light; Pfr/Pr about 0.56/0.44) are told apart by the assays; In the cell experiments other constructs were used (PCM-VP16; PCM 1-650 with CAAX); source: E. coli BL21(DE3), plasmid pDG282, purified (Ni-NTA IMAC, anion exchange)
T1 sequence (looked up): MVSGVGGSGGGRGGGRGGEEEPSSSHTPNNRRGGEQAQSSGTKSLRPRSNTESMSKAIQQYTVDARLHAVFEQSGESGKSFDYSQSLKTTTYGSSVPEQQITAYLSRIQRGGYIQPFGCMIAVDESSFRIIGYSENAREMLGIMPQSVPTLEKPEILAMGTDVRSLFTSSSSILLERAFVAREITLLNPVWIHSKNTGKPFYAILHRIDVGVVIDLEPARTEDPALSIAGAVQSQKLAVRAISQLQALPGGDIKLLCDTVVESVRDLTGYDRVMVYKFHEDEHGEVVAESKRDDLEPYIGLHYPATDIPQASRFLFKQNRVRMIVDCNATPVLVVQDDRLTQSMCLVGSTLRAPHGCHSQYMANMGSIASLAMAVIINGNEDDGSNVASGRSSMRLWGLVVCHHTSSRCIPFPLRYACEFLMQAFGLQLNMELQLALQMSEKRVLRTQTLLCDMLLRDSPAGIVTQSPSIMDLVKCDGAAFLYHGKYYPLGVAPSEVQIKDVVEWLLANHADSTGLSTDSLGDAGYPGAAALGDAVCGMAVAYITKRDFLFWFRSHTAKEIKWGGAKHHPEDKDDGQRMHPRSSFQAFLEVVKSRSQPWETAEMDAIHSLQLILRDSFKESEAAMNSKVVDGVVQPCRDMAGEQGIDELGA

[2] = molecular target: T1, Arabidopsis thaliana phytochrome B …; assay: fluorescence polarisation; anisotropy of EYFP; 20 nM AtPIF-EYFP constant, AtPhyB PCM 0-10 µM titrated, far-red light (750 nm), Pr state; 20 mM HEPES/HCl pH 7.3, 10 mM NaCl, 100 µg/mL BSA; single-site isotherm; conditions: both partners purified
[3] = molecular target: the molecule itself; assay: SEC; AtPIF-EYFP variants or EYFP alone, 10 µM, not illuminated; Superdex 200 Increase 10/300 GL; 67 mM sodium phosphate pH 8.0, 200 mM NaCl
P3.A-EYFP = molecular target: B5; assay: as above

B1: P3.AA-EYFP (domain or fragment)
chain: MVDEVVELVWENGQISTQSQSSRSRNIPPPQANSSRAREIGNGSKTTMVDEIPMSVPSLVDEVVELVWENGQISTQSQSSRSRFVPWLNHH
- Kd [1]: 370 ± 40 nM
- Kd [2]: > 3000 nM
- stoichiometry N [3]: 2

Binder: MVDEVVELVWENGQISTQSQSSRSRMTGLSQDDDFVPWLNHH (domain or fragment) [P3.fus-EYFP]
- Kd [1]: 270 ± 60 nM
- Kd [2]: > 10000 nM

Binder: MDQEYMELVFENGQILAKGQRSNVSLHNQRTKSIMDLYEA (domain or fragment) [P6.A-EYFP]
- Kd [1]: 280 ± 100 nM
- Kd [2]: > 2000 nM

B2: AtPIF6 (1-100)-EYFP, P6.100 (domain or fragment, Arabidopsis thaliana, UniProt Q8L5W7 1-100, looked up)
chain: MMFLPTDYCCRLSDQEYMELVFENGQILAKGQRSNVSLHNQRTKSIMDLYEAEYNEDFMKSIIHGGGGAITNLGDTQVVPQSHVAAAHETNMLESNKHVD
notes: A. thaliana PIF6, residues 1-100; His6-SUMO only on the pET-19b construct that was purified; the pET-28c construct used in lysate has the same AtPIF part, linker and EYFP; also called P6.100-EYFP; source: E. coli BL21(DE3): in crude lysate (pET-28c), and purified (pET-19b; IMAC, SENP2 cleavage, second IMAC, optional anion exchange); not shown: His6-SUMO, N-terminal, cleaved
- Kd [1]: 10 ± 8 nM
- stoichiometry N [3]: 2

B3: P6.fus-EYFP (domain or fragment)
chain: MDQEYMELVFENGQILAKGQRSNAITNLGDTQVVPQSHVAAAHETNMLESNKHVD
- Kd [1]: 200 ± 90 nM
- Kd [2]: > 10000 nM
- stoichiometry N [3]: 2

Binder: MVDEVVELVWENGQISTQSQ (domain or fragment) [P3.A19-EYFP]
- Kd [1]: > 1000 nM

Binder: MDQEYMELVFENGQILAKGQRSN (domain or fragment) [P6.As-EYFP]
- Kd [1]: 710 ± 80 nM
- Kd [2]: > 10000 nM

B4: P6.AA-EYFP (domain or fragment)
chain: MDQEYMELVFENGQILAKGQRSNVSLHNQRTKSIMDLYEAEYNEDFMKSIIHGGGGDQEYMELVFENGQILAKGQRSNTNMLESNKHVD
- Kd [1]: 360 ± 40 nM
- Kd [2]: > 2000 nM
- stoichiometry N [3]: 2

Binder: B5
- Kd [1]: 220 ± 40 nM
- stoichiometry N (P3.A-EYFP): 2
- Kd [2]: > 10000 nM

Binder: MDQEYMELVFENGQILAKGQ (domain or fragment) [P6.A19-EYFP]
- Kd [1]: > 2000 nM

B6: P6.AAfus-EYFP (domain or fragment)
chain: MDQEYMELVFENGQILAKGQRSNDQEYMELVFENGQILAKGQRSNTNMLESNKHVD
- Kd [1]: 230 ± 30 nM
- Kd [2]: > 10000 nM

B7: P6 (AtPIF6 1-100 without the N-terminal region preceding APB.A)-EYFP (domain or fragment)
chain: MDQEYMELVFENGQILAKGQRSNVSLHNQRTKSIMDLYEAEYNEDFMKSIIHGGGGAITNLGDTQVVPQSHVAAAHETNMLESNKHVD
- Kd [1]: 10 ± 7 nM

B8: P3 (AtPIF3 1-100 without the N-terminal region preceding APB.A)-EYFP (domain or fragment)
chain: MVDEVVELVWENGQISTQSQSSRSRNIPPPQANSSRAREIGNGSKTTMVDEIPMSVPSLMTGLSQDDDFVPWLNHH
- Kd [1]: 220 ± 40 nM
- Kd [2]: > 10000 nM
- stoichiometry N [3]: 2

B9: AtPIF3 (1-100)-EYFP, P3.100 (domain or fragment, Arabidopsis thaliana, UniProt O80536 1-100, looked up)
chain: MPLFELFRLTKAKLESAQDRNPSPPVDEVVELVWENGQISTQSQSSRSRNIPPPQANSSRAREIGNGSKTTMVDEIPMSVPSLMTGLSQDDDFVPWLNHH
notes: A. thaliana PIF3, residues 1-100; His6-SUMO only on the pET-19b construct that was purified; the pET-28c construct used in lysate has the same AtPIF part, linker and EYFP; also called P3.100-EYFP; source: E. coli BL21(DE3): in crude lysate (pET-28c), and purified (pET-19b; IMAC, SENP2 cleavage, second IMAC, optional anion exchange); not shown: His6-SUMO, N-terminal, cleaved
- Kd [1]: 200 ± 70 nM
- Kd [2]: > 2000 nM
- stoichiometry N [3]: 2

Binder: MVDEVVELVWENGQISTQSQSSRSR (domain or fragment) [P3.As-EYFP]
- Kd [1]: 680 ± 60 nM
- Kd [2]: > 10000 nM

B10: P3.AAfus-EYFP (domain or fragment)
chain: MVDEVVELVWENGQISTQSQSSRSRVDEVVELVWENGQISTQSQSSRSRFVPWLNHH
- Kd [1]: 230 ± 50 nM
- Kd [2]: > 10000 nM
